Paper PMC8538406

Molecular target: CCR7-FKBP (DmrA) receptor chimaera, CCR7-M

CXCR4-FRB (DmrC) receptor chimaera, CXCR4-H
Matrigel transwell invasion of co-transfected MDA-MB-231 cells with ACH (AP21967), towards CCL19 and CXCL12 together: > 50%
